T1: IL-23R extracellular domain (human, UniProt Q5VWK5 24-355)
T1 construct: Methods print IL-23/Fc Chimera for the coated receptor; also called IL-23R-HIS; IL-23/Fc Chimera (so in the source); not shown: Fc (R&D Systems chimera) or HIS tag (in-house IL-23R-HIS)
T1 sequence: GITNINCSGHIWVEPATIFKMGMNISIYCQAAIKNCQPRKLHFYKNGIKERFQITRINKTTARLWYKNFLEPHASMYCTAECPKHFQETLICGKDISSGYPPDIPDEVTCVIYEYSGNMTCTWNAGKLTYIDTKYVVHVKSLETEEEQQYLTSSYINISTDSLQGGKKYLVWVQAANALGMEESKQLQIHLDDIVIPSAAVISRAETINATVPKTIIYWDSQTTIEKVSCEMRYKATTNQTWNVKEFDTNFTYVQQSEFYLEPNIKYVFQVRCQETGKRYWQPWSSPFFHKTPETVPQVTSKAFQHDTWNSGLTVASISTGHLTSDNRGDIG

T2: human IL-12 (human, UniProt P29460 23-328; P29459 23-219)
T2 construct: Recombinant (Peprotech); FLAG-tagged IL-12 in the flow cytometry assays, biotinylated in the IL-12Rβ2 assay; also called hIL-12
T2 sequence 1: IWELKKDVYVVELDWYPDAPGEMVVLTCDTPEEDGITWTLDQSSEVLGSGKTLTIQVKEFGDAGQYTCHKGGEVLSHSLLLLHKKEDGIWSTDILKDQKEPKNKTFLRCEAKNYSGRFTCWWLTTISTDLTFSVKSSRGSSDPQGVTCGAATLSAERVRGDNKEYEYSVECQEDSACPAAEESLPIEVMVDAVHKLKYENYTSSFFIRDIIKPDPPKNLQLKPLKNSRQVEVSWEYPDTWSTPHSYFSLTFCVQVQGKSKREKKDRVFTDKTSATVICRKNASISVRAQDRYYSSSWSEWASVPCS
T2 sequence 2: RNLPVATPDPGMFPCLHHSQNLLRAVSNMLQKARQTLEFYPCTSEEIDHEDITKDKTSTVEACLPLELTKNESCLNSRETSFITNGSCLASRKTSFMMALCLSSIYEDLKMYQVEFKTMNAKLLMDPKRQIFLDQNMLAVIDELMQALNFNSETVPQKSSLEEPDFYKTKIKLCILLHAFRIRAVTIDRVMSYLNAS

T3: human IL-23 (human, UniProt P29460 23-328; Q9NPF7 20-189)
T3 construct: Recombinant (Ebioscience); HIS-tagged in flow cytometry, biotinylated in some assays; also called hIL-23; rhIL-23
T3 sequence 1: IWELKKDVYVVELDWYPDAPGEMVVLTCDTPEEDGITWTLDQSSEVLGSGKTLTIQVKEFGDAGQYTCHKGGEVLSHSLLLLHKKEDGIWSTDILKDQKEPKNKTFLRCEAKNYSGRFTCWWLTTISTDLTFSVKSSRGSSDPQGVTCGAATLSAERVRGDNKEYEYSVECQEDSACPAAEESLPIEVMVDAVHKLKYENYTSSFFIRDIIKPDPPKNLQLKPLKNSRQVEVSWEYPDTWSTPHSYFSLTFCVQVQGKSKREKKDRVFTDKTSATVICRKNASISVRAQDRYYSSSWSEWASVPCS
T3 sequence 2: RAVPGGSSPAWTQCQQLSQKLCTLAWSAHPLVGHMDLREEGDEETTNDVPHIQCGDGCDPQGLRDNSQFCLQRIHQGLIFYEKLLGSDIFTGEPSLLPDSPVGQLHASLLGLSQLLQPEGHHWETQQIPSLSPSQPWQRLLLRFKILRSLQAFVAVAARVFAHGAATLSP


Key:
[1] = target: T1, IL-23R extracellular domain; assay: ELISA, IL-23R coated
Protocol: (§1) The plate was then washed three times with wash buffer. The wells were then blocked by adding 200 μl of blocking buffer to each well and incubating the plate at 25° C. for 1 hour. The supernatant was diluted in antibody diluent sufficient to generate a titration curve and 100 µl was added to wells then incubated for 1 hour at 25° C. The plate was then washed as previously described and 100 μl of Monoclonal Anti-FLAG® M2-HRP (Sigma-Aldrich®) at 1:1000 in antibody diluent was used to detect bound cytokine. After incubation at 25° C. for 1 hour the plate was washed again as previously described. 100 μl TMB substrate solution (Sigma-Aldrich®) was added to each well and the colour allowed to develop for 5 minutes. 100 μl of 1M HCl was added to terminate the colour development reaction and absorbance was determined at 450 nm (ref. 620 nm).

IL-12Rβ1/Fc Chimera = target: T4, IL-12Rβ1/Fc Chimera (human, UniProt P42701 25-545); assay: ELISA, IL-12Rβ1 coated
T4 construct: not shown: Fc of the bought R&D Systems chimera
Protocol: as §1

human IL-12 [2] = target: T2, human IL-12; assay: sandwich ELISA: IL-12 held by coated PMA202, Antibody 136 titrated, anti-human Fc-HRP
Method in brief: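 Capture antibody at 1 μg/mL was coated overnight at 4° C and blocked with 1% BSA. IL-12 at 0.5 μg/ml was bound for 1 hour at 25° C, followed by half-log serial dilutions of test antibody for 1 hour. Bound antibody was detected with goat anti-human IgG Fc-HRP (1:2000) and TMB, stopped with 1 M HCl, and optical density read at 450 nm (reference 620 nm). EC50 was read off the curve.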

human IL-23 [3] = target: T3, human IL-23; assay: sandwich ELISA: IL-23 held by coated PMA202, Antibody 136 titrated, anti-human Fc-HRP
human IL-12 [4] = target: T2, human IL-12; assay: neutralization ELISA: IL-12 preincubated with antibody, its binding to coated IL-12Rβ2/Fc is blocked
Method in brief: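 IL-12Rβ2/Fc chimera at 5 ug/ml in carbonate buffer was coated overnight at 4° C and blocked with 1% BSA for 1 hour at 25° C. Biotinylated IL-12 was preincubated with titrated antibody for 2 hours, then added to the wells for 2 hours at 25° C. Detection used Streptavidin HRP 1:5000 and TMB, stopped with 1M HCl, with absorbance read at 450 nm (reference 620 nm). IC50 was read off the curve.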

human IL-23 [5] = target: T3, human IL-23; assay: neutralization ELISA: IL-23 preincubated with antibody, its binding to coated IL-23R is blocked
Method in brief: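 His-tagged IL-23R made in HEK-293E cells was coated in carbonate buffer overnight at 4° C and blocked with 1% BSA. Biotinylated IL-23 at 50 ng/ml was preincubated with titrated antibody for 2 hours, then added to the wells for 2 hours at 25° C. Detection used Streptavidin HRP 1:5000 and TMB for 15 minutes, stopped with 1M HCl, read at 450 nm (reference 620 nm). IC50 was read off the curve.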

human IL-23 [6] = target: T3, human IL-23; assay: SPR, IgG on Protein A
Protocol: (§2) Using SPR technology the kₐ and kd and the KD of various humanized antibodies was determined.
(§3) Using a SPR 3000, Protein A was immobilized onto FC1 and FC2 (or alternatively FC3 and FC4) of a CM5 research grade sensor chip using amine coupling, giving approximately […] RU. FC1 was used a blank throughout the experiments. The experiments were run in HBS-P buffer (SPR). At a flow rate of 20 μl/min, 20 μl of 5 μg/mL of antibody was passed over FC2. IL-12, IL-23 or IL-12p40 (Peprotech) were passed over the surface of FC1 and FC2 at concentrations ranging from 66 nM to 2 nM. Regeneration of the surface was performed using 10 mM Glycine, pH 1.0. The sensorgram data from FC2 was subtracted from FC1 and a buffer only control. The curves were fitted using a 1:1 Langmuir equation to generate the kd, ka and KD values. All curves were fitted with a χ² of less then 2.0 where possible.

human IL-12 [7] = target: T2, human IL-12; assay: SPR, IgG on Protein A
Protocol: as §2, §3

Row | Binder | binding result [1] | binding result (IL-12Rβ1/Fc Chimera) | EC50 (read off the curve) (human IL-12 [2]) | EC50 (read off the curve) (human IL-23 [3]) | IC50 (read off the curve) (human IL-12 [4]) | IC50 (read off the curve) (human IL-23 [5]) | Kd (human IL-23 [6]) | koff (human IL-23 [6]) | kon (human IL-23 [6]) | Kd (human IL-12 [7]) | koff (human IL-12 [7]) | kon (human IL-12 [7])
1 | IL-23 mutant D265A (ligand) IWELKKDVYVVELDWYPDAPGEMVVLTCDTPEEDGITWTLDQSSEVLGSGKTLTIQVKEFGDAGQYTCHKGGEVLSHSLLLLHKKEDGIWSTDILKDQKEPKNKTFLRCEAKNYSGRFTCWWLTTISTDLTFSVKSSRGSSDPQGVTCGAATLSAERVRGDNKEYEYSVECQEDSACPAAEESLPIEVMVDAVHKLKYENYTSSFFIRDIIKPDPPKNLQLKPLKNSRQVEVSWEYPDTWSTPHSYFSLTFCVQVQGKSKREKKARVFTDKTSATVICRKNASISVRAQDRYYSSSWSEWASVPCSGSGSSRGGSGSGGSGGGGSKLRAVPGGSSPAWTQCQQLSQKLCTLAWSAHPLVGHMDLREEGDEETTNDVPHIQCGDGCDPQGLRDNSQFCLQRIHQGLIFYEKLLGSDIFTGEPSLLPDSPVGQLHASLLGLSQLLQPEGHHWETQQIPSLSPSQPWQRLLLRFKILRSLQAFVAVAARVFAHGAATLSP | binds | binds |  |  |  |  |  |  |  |  |  | 
2 | IL-23 mutant R266A (ligand) IWELKKDVYVVELDWYPDAPGEMVVLTCDTPEEDGITWTLDQSSEVLGSGKTLTIQVKEFGDAGQYTCHKGGEVLSHSLLLLHKKEDGIWSTDILKDQKEPKNKTFLRCEAKNYSGRFTCWWLTTISTDLTFSVKSSRGSSDPQGVTCGAATLSAERVRGDNKEYEYSVECQEDSACPAAEESLPIEVMVDAVHKLKYENYTSSFFIRDIIKPDPPKNLQLKPLKNSRQVEVSWEYPDTWSTPHSYFSLTFCVQVQGKSKREKKDAVFTDKTSATVICRKNASISVRAQDRYYSSSWSEWASVPCSGSGSSRGGSGSGGSGGGGSKLRAVPGGSSPAWTQCQQLSQKLCTLAWSAHPLVGHMDLREEGDEETTNDVPHIQCGDGCDPQGLRDNSQFCLQRIHQGLIFYEKLLGSDIFTGEPSLLPDSPVGQLHASLLGLSQLLQPEGHHWETQQIPSLSPSQPWQRLLLRFKILRSLQAFVAVAARVFAHGAATLSP | binds | binds |  |  |  |  |  |  |  |  |  | 
3 | Antibody 136 (antibody, human IgG1, kappa, V domains shown, Humanized PMA204 (1RZ7 framework)) VH: EVQLVQSGAEVKKPGATVKISCKASGYTFSDYYLHWVRQAPEKGLEWMGWIDPENGDTEYAPKFQGRVTITADTSTDTGYLELSSLRSEDTAVYYCAANKELRYFDVWGQGTLVTVSS VL: DIQMTQSPSSVSASVGDRVTITCRASQSISINLHWYQQKPGKAPKLLIYFASQSISGVPSRFSGSGSGTDFSLTINSLQTEDFATYYCQQSNSFPLTFGGGTKVEIKR |  |  | ~0.1 µg/mL | ~0.06 µg/mL | ~0.4 µg/mL | ~1 µg/mL | 105 pM | 0.000795 s⁻¹ | 7.55e+06 M⁻¹ s⁻¹ | 197 pM | 0.000997 s⁻¹ | 5.05e+06 M⁻¹ s⁻¹

Source: patent US20110262445A1 (CEPHALON AUSTRALIA, published 2011)
